These results are taken from article PMC4649501 (2015).

One assay deals with PDCD6 (Homo sapiens, UniProt O75340). In words: SPR.
Assay [1] deals with T1, PDCD6 N-terminal domain peptide (Homo sapiens, Ca2+ (100 uM CaCl2)).
T1 chain: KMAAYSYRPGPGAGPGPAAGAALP
In words: SPR.

PDCD6, sequence (O75340 2-191): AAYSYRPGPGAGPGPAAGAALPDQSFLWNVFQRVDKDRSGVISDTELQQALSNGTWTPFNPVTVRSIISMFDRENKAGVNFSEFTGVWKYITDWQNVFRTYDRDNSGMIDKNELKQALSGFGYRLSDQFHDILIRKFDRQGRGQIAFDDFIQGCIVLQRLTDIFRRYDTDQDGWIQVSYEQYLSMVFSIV

B1: SCBD (Sorcin calcium-binding domain) 33-198 (protein)
chain: DPLYGYFAAVAGQDGQIDADELQRCLTQSGIAGGYKPFNLETCRLMVSMLDRDMSGTMGFNEFKELWAVLNGWRQHFISFDTDRSGTVDPQELQKALTTMGFRLSPQAVNSIAKRYSTNGKITFDDYIACCVKLRALTDSFRRRDTAQQGVVNFPYDDFIQCVMSV
In the case of B1, the figures for the Kd (with PDCD6; in assay [1]) were 5 µM and 6 µM, respectively.

B2: SCBD (Sorcin calcium-binding domain) 33-198 (protein)
chain: B1 chain
modifications: Ca2+ (100 uM CaCl2)
Turning to B2, the equilibrium dissociation constant (Kd) with PDCD6 is 3.5 µM.

B3: Sorcin (protein)
chain: MAYPGHPGAGGGYYPGGYGGAPGGPAFPGQTQDPLYGYFAAVAGQDGQIDADELQRCLTQSGIAGGYKPFNLETCRLMVSMLDRDMSGTMGFNEFKELWAVLNGWRQHFISFDTDRSGTVDPQELQKALTTMGFRLSPQAVNSIAKRYSTNGKITFDDYIACCVKLRALTDSFRRRDTAQQGVVNFPYDDFIQCVMSV
With B3, the equilibrium dissociation constant (Kd) with PDCD6 was 12 µM; in assay [1], 5 µM.

B4: Sorcin (protein)
chain: B3 chain
modifications: Ca2+ (100 uM CaCl2)
In turn, B4 returned an equilibrium dissociation constant (Kd) in the assay with PDCD6 of 3.5 µM.
